Source: patent publication JP2023110925A

Target: ペプチド13(Aβのaa 13-21) (UniProt P05067)
Test: ELISA on biotinylated peptides (Mimotopes format)

B1: ヒト化抗ヒトアミロイドβモノクローナル抗体hC2 (antibody, human IgG4 S228P, kappa, V domains shown)
VH: EVQLVESGGGLVQPGGSLRLSCAASGFTFSSYGMSWVRQAPGKGLELVASINSNGGSTYYPDSVKGRFTISRDNAKNSLYLQMNSLRAEDTAVYYCASGDYWGQGTTVTVSS
VL: DIVMTQSPLSLPVTPGEPASISCRSSQSLVYSNGDTYLHWYLQKPGQSPQLLIYKVSNRFSGVPDRFSGSGSGTDFTLKISRVEAEDVGVYYCSQSTHVPWTFGQGTKVEIKR
- percent higher affinity than for whole Aβ1-42 protein: 36%
